Test results from patent US8236753 (BRIGHAM AND WOMEN S HOSPITAL, dated 2012).

B1: wild-type RAP-D3 (third domain of the receptor-associated protein, residues 216-323) (ligand, human)
chain: GAEFEEPRVIDLWDLAQSANLTDKELEAFREELKHFEAKIEKHNHYQKQLEIAHEKLRHAESVGDGERVSRSREKHALLEGRTKELGYTVKKHLQDLSGRISRARHNEL
notes: range 216-323; Expressed in E. coli as a GST fusion, released by TEV protease, monomer isolated by size exclusion; The range 216-323 counts on the mature RAP protein, not on the precursor; also called RAP-D3 WT; RAPD3_WT
B3: LA3-4 module pair of the LDLR (LDL receptor type-A repeats 3 and 4) (receptor)
chain: not shown
notes: domain: LA3-4 module pair; also called two-repeat fragment of the LDL receptor; LA3-4 repeat pair

What was measured:
[1] = target: B3; experiment: ITC, RAP-D3 titrated into LA3-4, 20 mM HEPES pH 7.3, 5 mM CaCl2, 25 C, 50 mM NaCl; design: ΔH: unit not given here
Procedure: (§1) RAP-D3 titrations were performed in 20 mM HEPES, pH 7.3, 50-150 mM NaCl, 5 mM CaCl_2 at 25° C. using a VP-ITC calorimeter (MicroCal Inc., Northampton, Mass.) in a 1.3 mL reaction vessel. A RAP-D3 stock solution (132-178 μM) was added in 6-8 μL increments to LA3-4 (20-25 μM). Calorim-

[2] = target: B3; experiment: ITC, RAP-D3 titrated into LA3-4, 20 mM HEPES pH 7.3, 5 mM CaCl2, 25 C, 150 mM NaCl; design: ΔH: unit not given here
Procedure: as §1

[3] = target: B3; experiment: ITC at neutral pH
Procedure: as §1

[4] = target: B1; experiment: ITC, RAP-D3 titrated into LA3-4, 20 mM HEPES pH 7.3, 5 mM CaCl2, 25 C, 50 mM NaCl; design: ΔH: unit not given here
Procedure: as §1

[5] = target: B1; experiment: ITC, RAP-D3 titrated into LA3-4, 20 mM HEPES pH 7.3, 5 mM CaCl2, 25 C, 150 mM NaCl; design: ΔH: unit not given here
Procedure: as §1

[6] = target: B3; experiment: ITC, RAP-D3 titrated into LA3-4, 20 mM HEPES pH 7.3, 5 mM CaCl2, 25 C, 100 mM NaCl; design: ΔH: unit not given here
Procedure: as §1

[7] = target: B3; experiment: ITC, RAP-D3 titrated into LA3-4, 20 mM HEPES pH 7.3, 5 mM CaCl2, 25 C, 100 mM NaCl; 100 mM NaCl
Procedure: as §1

Binder: B1
- ΔH [1]: -9.1
- ΔH [2]: -6.8

B2: RAP-D3 [H268F/H290F] (ligand)
chain: GAEFEEPRVIDLWDLAQSANLTDKELEAFREELKHFEAKIEKHNHYQKQLEIAFEKLRHAESVGDGERVSRSREKFALLEGRTKELGYTVKKHLQDLSGRISRARHNEL
notes: also called RAPD3_H268, 290F
- fold difference in affinity against wild-type RAP-D3 [3]: ≤ 2 fold
- Kd [1]: 1160 nM
- ΔH [1]: -9.3

Binder: B3
- Kd [4]: 480 nM
- Kd [5]: 1170 nM

B4: RAP-D3-quad (RAP-D3 H257F/H259F/H268F/H290F) (ligand)
chain: GAEFEEPRVIDLWDLAQSANLTDKELEAFREELKHFEAKIEKFNFYQKQLEIAFEKLRHAESVGDGERVSRSREKFALLEGRTKELGYTVKKHLQDLSGRISRARHNEL
notes: also called RAP-D3 Quad H:F; RAPD3_H257, 259, 268, 290F
- fold difference in affinity against wild-type RAP-D3 [3]: ≤ 2 fold
- Kd [6]: 850 nM
- ΔH [6]: -5.4
- Ka [7]: 1.2e+06 M⁻¹

B5: RAP-D3 [H257F/H259F] (ligand)
chain: GAEFEEPRVIDLWDLAQSANLTDKELEAFREELKHFEAKIEKFNFYQKQLEIAHEKLRHAESVGDGERVSRSREKHALLEGRTKELGYTVKKHLQDLSGRISRARHNEL
notes: The entry is printed as ENLYFQG followed by the 108 residues; also called RAPD3_H257, 259F; RAP-D3 H257,259F
- fold difference in affinity against wild-type RAP-D3 [3]: ≤ 2 fold
- Kd [1]: 850 nM
- ΔH [1]: -8.6
